The values that follow come from patent US8709741B2, “Methods of diagnosing a plasmodium infection” (priority 2009, dated 2014).

The nature of experiment [1]: Enzymatic hydrolysis of purified lipoproteins (NEFA). It counts as biochemical, human. To be noted: 15 h at 37° C., each sPLA2 at approximately 10×IC50. Here is the method: CM/VLDL, LDL and HDL were purified from human plasma and used either fresh (F) or after minimal oxidization by air and light (Ox). After phospholipid content determination, plasma, LDL and HDL were adjusted to 1.6 mg PL/mL final concentration in PBS calcium. Because low amount was available, the CM/VLDL fraction was adjusted to 1.0 mg PL/mL. Each sample was incubated for 15 hours at 37° C., alone or in the presence of recombinant human GX sPLA2 (hGX PLA2; 25 nM), recombinant human GIIF sPLA2 (hGIIF PLA2; 125 nM), bee venom sPLA2 (bvPLA2; 0.18 nM) and Naja mossambica mossambica venom sPLA2 (Naja PLA2; 0.05 nM). NEFAs were quantified using the NEFA-C kit (WAKO). Values are the mean±SD of triplicate measurements. They were normalized by subtracting NEFA amount in the absence of enzyme. Two independent experiments with lipoproteins from different plasmas were performed, which gave similar qualitative results. Results from one experiment are shown;
Plasma and purified LDL and HDL were adjusted to 1.67 mg phospholipid (PL)/mL final concentration in PBS. Because purification yielded low amount of CM/VLDL, the CM/VLDL fraction was adjusted to 1.00 mg PL/mL. CaCl2 (1 mM final) was added to the lipoprotein fractions. 200 μL of each fraction were deposited in a 96-well plate and incubated for 15 hours at 37° C., alone or in the presence of recombinant human GX sPLA2 (hGX PLA2, 25.0 nM), recombinant human GIIF sPLA2 (hGIIF PLA2, 125.0 nM), bee venom sPLA2 (bvPLA2, 0.18 nM) and Naja mossambica mossambica venom sPLA2 (Naja PLA2, 0.05 nM). NEFAs were measured in triplicate using the NEFA-C kit (WAKO). Value from each fraction was normalized by subtracting the NEFA amount in the corresponding fraction without enzyme. Two independent experiments with lipoproteins from different plasmas were performed, which gave similar qualitative results. According to the experiment, maximum hydrolysis reached 50% or 65% of total PLs in the fraction. […]

Experiment [2] concerns P. falciparum-infected erythrocytes. The experiment can be described thus: GX sPLA2 lipolysis of infected red blood cells, young and mature stages (NEFA). Type of experiment: cell-based, human. The conditions noted are these: no serum, 5 h at 37° C. The method, then: A semi-synchronous culture of P. falciparum (2.5% parasitaemia) was analysed for sensitivity to GX sPLA2 at early and late development stages. Parasitaemia and stage distribution were determined from Diff-Quick-stained smears. Early stages were processed at t 0 h and late stages were processed 24 h later (t 24 h). Cultures were washed and cells were re-suspended at 50% haematocrit in RPMI 0.05% BSA, and then distributed into wells of a 96-well microplate in the presence or absence of respectively 30.0 nM of GX sPLA2 and 0.2 nM of bee venom sPLA2. Non-infected erythrocytes and human serum were processed similarly, after all samples had been adjusted for same phosphatidylcholine (PC) content. […] NEFAs in each sample were measured in triplicate using the NEFA-C kit (WAKO). […]
A parasite culture was enriched in young parasite stages (rings+early trophozoites) by sorbitol treatment. Parasitaemia (2.5-3%) and stage distribution were determined from Diff-Quick staining of culture smears. […] NEFAs in erythrocyte samples are expressed as the sum of NEFAs from ghosts and corresponding supernatant.
The membranolytic activity of the recombinant GX sPLA2 on RBCs infected by either young (ring/young trophozoite) or mature (late trophozoite/schizont) parasites was analysed. […] Parasite cultures were incubated with GX sPLA2 in the absence of serum for 5 h and NEFA production was measured thereafter. […]

Experiment [3] is described as follows: 48 h-hydrolysis of plasma by sPLA2s at IC50 concentrations (NEFA). Type of experiment: biochemical, human. To be noted: GX 3 nM, GIIF full length or truncated 15 nM, bee venom 15 pM; 37° C. Here is the method: Crude human plasma was incubated with 3 nM of recombinant human GX sPLA2 (⋄), 15 nM of the full length (▪) or truncated (□) recombinant human GIIF sPLA2, and 15 pM of the bee venom sPLA2 (♦), for 48 h at 37° C. Aliquots were taken at times 0 h, 6 h, 22 h, 30 h and 48 h of incubation. NEFAs in each aliquot were measured using the NEFA-C kit (WAKO);
Crude human plasma was incubated with 3 nM of recombinant human GX sPLA2, 15 nM of the full length or the truncated form (IIFΔC) of recombinant human GIIF sPLA2, and 15 pM of the bee venom sPLA2, for 48 h at 37° C. Aliquots (7 μL) were taken at times 0 h, 6 h, 22 h, 30 h and 48 h of incubation. NEFAs were measured in each aliquot by using the NEFA-C kit (WAKO). Experiment was repeated twice with different plasmas.

B1: X: recombinant human group X secreted phospholipase A2 (protein, UniProt O15496 43-165, looked up)
Group 10 secretory …: GILELAGTVGCVGPRTPIAYMKYGCFCGLGGHGQPRDAIDWCCHGHDCCYTRAEEAGCSPKTERYSWQCVNQSVLCGPAENKCQELLCKCDQEIANCLAQTEYNLKYLFYPQFLCEPDSPKCD
Consider B1, for which the “preferential order of lipoprotein hydrolysis” value in experiment [1] is “HDL>LDL>CM/VLDL”. The “membranolytic activity on healthy (non-infected) erythrocytes” value in experiment [2] (30 nM) was “left intact”. For the same molecule, the “membranolytic activity on parasite culture erythrocytes (NEFA release, words)” value in experiment [2] (GX 30 nM, bee venom 0.2 nM) is reported as “induced the release of NEFAs from the parasite culture with predominance for the schizont stages”. Further, the “hydrolysis of plasma over 48 h” value in experiment [3] is given as “the most active”.
